Experimental data: patent US12295987B2, “Method of using a GIP/GLP1 co-agonist for diabetes” (Eli Lilly and Company, priority 2018, dated 2025)
Numbered stars: 1 amine (or outer) side, 2 acyl side, 3 side chain; on linkers, the order of the positions; unused ones are H or OH. Square brackets hold non-standard residues; d marks the D form. Side chains are listed from the residue outwards. Ends that are not written are not given here. * marks the point of attachment. C20 diacid = O=C(O)CCCCCCCCCCCCCCCCCCC(=O)*; γGlu = O=C(O)[C@H](CCC(=O)[*:2])N[*:1]; αMeF = C[C@](N)(Cc1ccccc1)C(=O)O; αMeL = CC(C)C[C@](C)(N)C(=O)O; cTA = not defined here; AEEA = NCCOCCOCC(=O)O; Aib = CC(C)(N)C(=O)O

Target: T1, human gastric inhibitory peptide receptor (hGIPR) (Homo sapiens, UniProt P48546)
T1 construct: expressed in transfected cells; host or cells: HEK293
T1 sequence (P48546 22-466): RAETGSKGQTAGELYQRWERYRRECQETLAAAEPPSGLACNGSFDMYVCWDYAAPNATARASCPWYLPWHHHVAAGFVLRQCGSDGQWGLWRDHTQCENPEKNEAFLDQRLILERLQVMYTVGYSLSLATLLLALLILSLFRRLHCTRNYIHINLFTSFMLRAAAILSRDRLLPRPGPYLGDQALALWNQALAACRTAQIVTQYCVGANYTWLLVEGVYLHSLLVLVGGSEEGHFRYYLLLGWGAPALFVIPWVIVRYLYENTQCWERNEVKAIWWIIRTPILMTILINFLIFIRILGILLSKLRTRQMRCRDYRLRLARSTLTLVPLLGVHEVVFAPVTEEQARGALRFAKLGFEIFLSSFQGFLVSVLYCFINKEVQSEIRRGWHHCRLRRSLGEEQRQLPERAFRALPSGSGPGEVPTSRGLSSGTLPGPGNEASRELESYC
Experiment: cAMP pharmacological functional assay in presence of 0.1% casein, hGIPR
Type: cell-based
Details: ratio of hGIPR to hGLP1R cAMP EC50 ratios

Substance | [hGIPR/hGLP1R] EC50 Ratio
Y-Aib-EGT-αMeF(2F)-TSDYSI-αMeL-LD-Dab-K((2-[2-(2-Amino-ethoxy)-ethoxy]-acetyl)2-(γGlu)-CO—(CH2)16—CO2H)AQ-Aib-EFI-(D-Glu)-YLIEGGPSSGAPPPS-NH2 (YXEGTXTSDYSIXLDXKAQXEFIXYLIEGGPSSGAPPPS; Aib, αMeF(2F), αMeL, Dab, D-Glu; lipidated K; amide; (2)..(2) Xaa at position 2 is Aib; (6)..(6) Xaa at position 6 is alpha-methyl-Phe(2F); (13)..(13) Xaa at position 13 is alpha-methyl-Leu; (16)..(16) Xaa at position 16 is Dab; MOD_RES (17)..(17) Lys at position 17 is chemically modified by conjugation of the epsilon-amino group of the Lys side chain with (2-[2-(2-amino-ethoxy)-ethoxy]-acetyl)2-(gamma-Glu)-CO-(CH2)16- CO2H; (20)..(20) Xaa at positi) [Peptide 209] | 5.12
Y-Aib-cTA-GT-αMeF-TSDYSI-αMeL-LDEK((2-[2-(2-Amino-ethoxy)-ethoxy]-acetyl)2-(γGlu)-CO—(CH2)18—CO2H)AQ-Aib-AFIEYLIEGGPSSGAPPPS-NH2 (Y[Aib][cTA]GT[αMeF]TSDYSI[αMeL]LDEK([AEEA-AEEA-γGlu-C20 diacid])AQ[Aib]AFIEYLIEGGPSSGAPPPS-NH2; reading uncertain; also: printed as Y-Aib-cTA-GT-αMeF-TSDYSI-αMeL-LDEK((2-[2-(2-Amino-ethoxy)-ethoxy]-acetyl)2-(γGlu)-CO—(CH2)18—CO2H)AQ-Aib-AFIEYLIEGGPSSGAPPPS-NH2) [Peptide 120] | 5.24
Y-Aib-EGT-αMeF(2F)-TSDYSI-αMeL-LDEK((2-[2-(2-Amino-ethoxy)-ethoxy]-acetyl)2-(γGlu)-CO—(CH2)14—CO2H)AQ-Aib-EFI-(D-Glu)-YLIEGGPSSGAPPPS-NH2 (YXEGTXTSDYSIXLDEKAQXEFIXYLIEGGPSSGAPPPS; Aib, αMeF(2F), αMeL, D-Glu; lipidated K; amide; (2)..(2) Xaa at position 2 is Aib; (6)..(6) Xaa at position 6 is alpha-methyl-Phe(2F); (13)..(13) Xaa at position 13 is alpha-methyl-Leu; MOD_RES (17)..(17) Lys at position 17 is chemically modified by conjugation of the epsilon-amino group of the Lys side chain with (2-[2-(2-amino-ethoxy)-ethoxy]-acetyl)2-(gamma-Glu)-CO-(CH2)14- CO2H; (20)..(20) Xaa at position 20 is Aib; (24)..(24) Xaa at positi) [Peptide 208] | 9.08
Y-Aib-EGTFTSDYSILLDSK((2-[2-(2-Amino-ethoxy)-ethoxy]-acetyl)2-(γGlu)-CO—(CH2)18—CO2H)AQ-Aib-AFIEYLIEGGPSSGAPPPS-NH2 (Y[Aib]EGTFTSDYSILLDSK([AEEA-AEEA-γGlu-C20 diacid])AQ[Aib]AFIEYLIEGGPSSGAPPPS-NH2; N-terminus assumed; SMILES CC[C@H](C)[C@H](NC(=O)[C@H](CC(C)C)NC(=O)[C@H](Cc1ccc(O)cc1)NC(=O)[C@H](CCC(=O)O)NC(=O)[C@@H](NC(=O)[C@H](Cc1ccccc1)NC(=O)[C@H](C)NC(=O)C(C)(C)NC(=O)[C@H](CCC(N)=O)NC(=O)[C@H](C)NC(=O)[C@H](CCCCNC(=O)COCCOCCNC(=O)COCCOCCNC(=O)CC[C@H](NC(=O)CCCCCCCCCCCCCCCCCCC(=O)O)C(=O)O)NC(=O)[C@H](CO)NC(=O)[C@H](CC(=O)O)NC(=O)[C@H](CC(C)C)NC(=O)[C@H](CC(C)C)NC(=O)[C@@H](NC(=O)[C@H](CO)NC(=O)[C@H](Cc1ccc(O)cc1)NC(=O)[C@H](CC(=O)O)NC(=O)[C@H](CO)NC(=O)[C@@H](NC(=O)[C@H](Cc1ccccc1)NC(=O)[C@@H](NC(=O)CNC(=O)[C@H](CCC(=O)O)NC(=O)C(C)(C)NC(=O)[C@@H](N)Cc1ccc(O)cc1)[C@@H](C)O)[C@@H](C)O)[C@@H](C)CC)[C@@H](C)CC)C(=O)N[C@@H](CCC(=O)O)C(=O)NCC(=O)NCC(=O)N1CCC[C@H]1C(=O)N[C@@H](CO)C(=O)N[C@@H](CO)C(=O)NCC(=O)N[C@@H](C)C(=O)N1CCC[C@H]1C(=O)N1CCC[C@H]1C(=O)N1CCC[C@H]1C(=O)N[C@@H](CO)C(N)=O) [Peptide 9] | 2.45
Y-Aib-EGT-αMeF-TSDYSI-αMeL-LDKK((2-[2-(2-Amino-ethoxy)-ethoxy]-acetyl)2-(γGlu)-CO—(CH2)18—CO2H)AQ-Aib-AFIEYLIEAGPSSGAPPPS-NH2 (YXEGTXTSDYSIXLDKKAQXAFIEYLIEAGPSSGAPPPS; Aib, αMeF, αMeL; acylated lysine C20 diacid; amide; (2)..(2) Xaa at position 2 is Aib; (6)..(6) Xaa at position 6 is alpha-methyl-Phe; (13)..(13) Xaa at position 13 is alpha-methyl-Leu; MOD_RES (17)..(17) Lys at position 17 is chemically modified by conjugation of the epsilon-amino group of the Lys side chain with (2-[2-(2-amino-ethoxy)-ethoxy]-acetyl)2-(gamma-Glu)-CO-(CH2)18- CO2H; (20)..(20) Xaa at position 20 is Aib; MOD_RES (39)..(39) Ser at po) [Peptide 126] | 2.91
Y-Aib-EGTFTSDYSI-αMeL-LDEK((2-[2-(2-Amino-ethoxy)-ethoxy]-acetyl)2-(γGlu)-CO—(CH2)18—CO2H)AQ-Aib-AFIEYLLEGGPSSGAPPPS-NH2 (YXEGTFTSDYSIXLDEKAQXAFIEYLLEGGPSSGAPPPS; Aib, αMeL, lipidated Lys, C-terminal amide; (2)..(2) Xaa at position 2 is Aib; (13)..(13) Xaa at position 13 is alpha-methyl-Leu; MOD_RES (17)..(17) Lys at position 17 is chemically modified by conjugation of the epsilon-amino group of the Lys side chain with (2-[2-(2-amino-ethoxy)-ethoxy]-acetyl)2-(gamma-Glu)-CO-(CH2)18- CO2H; (20)..(20) Xaa at position 20 is Aib; MOD_RES (39)..(39) Ser at position 39 is amidated) [Peptide 66] | 7.41
Y-Aib-EGT-αMeF(2F)-TSD-4Pal-SI-αMeL-LDKK((2-[2-(2-Amino-ethoxy)-ethoxy]-acetyl)2-(γGlu)-CO—(CH2)18—CO2H)AQ-Aib-EFI-(D-Glu)-YLIEGGPSSGAPPPS-NH2 (YXEGTXTSDXSIXLDKKAQXEFIXYLIEGGPSSGAPPPS; Aib, αMeF(2F), 4Pal, αMeL, D-Glu; lipidated K; amide; (2)..(2) Xaa at position 2 is Aib; (6)..(6) Xaa at position 6 is alpha-methyl-Phe(2F); (10)..(10) Xaa at position 10 is 4Pal; (13)..(13) Xaa at position 13 is alpha-methyl-Leu; MOD_RES (17)..(17) Lys at position 17 is chemically modified by conjugation of the epsilon-amino group of the Lys side chain with (2-[2-(2-amino-ethoxy)-ethoxy]-acetyl)2-(gamma-Glu)-CO-(CH2)18- CO2H; (20)..(20) Xaa at posit) [Peptide 203] | 7.38
Y-Aib-EGT-αMeF-TSDYSI-αMeL-LDSK((2-[2-(2-Amino-ethoxy)-ethoxy]-acetyl)2-(γGlu)-CO—(CH2)18—CO2H)AQ-Aib-AFIEYLIEGGPSSG-NH2 [Peptide 99] | 3.61
Y-Aib-EGT-αMeF(2F)-TSDHSI-αMeL-LD-Dap-K((2-[2-(2-Amino-ethoxy)-ethoxy]-acetyl)2-(γGlu)-CO—(CH2)18—CO2H)AQ-Aib-TFI-(D-Glu)-YLIEGGPSSGAPPPS-NH2 (YXEGTXTSDHSIXLDXKAQXTFIXYLIEGGPSSGAPPPS; Aib, αMeF(2F), αMeL, Dap, D-Glu; lipidated K; amide; (2)..(2) Xaa at position 2 is Aib; (6)..(6) Xaa at position 6 is alpha-methyl-Phe(2F); (13)..(13) Xaa at position 13 is alpha-methyl-Leu; (16)..(16) Xaa at position 16 is Dap; MOD_RES (17)..(17) Lys at position 17 is chemically modified by conjugation of the epsilon-amino group of the Lys side chain with (2-[2-(2-amino-ethoxy)-ethoxy]-acetyl)2-(gamma-Glu)-CO-(CH2)18- CO2H; (20)..(20) Xaa at positi) [Peptide 173] | 4.80
Y-Aib-EGT-αMeF(2F)-TSD-4Pal-SI-αMeL-LD-Dab-K((2-[2-(2-Amino-ethoxy)-ethoxy]-acetyl)2-(γGlu)-CO—(CH2)16—CO2H)AQ-Aib-EFI-(D-Glu)-YLIEGGPSSGAPPPS-NH2 (YXEGTXTSDXSIXLDXKAQXEFIXYLIEGGPSSGAPPPS; Aib, 4Pal, Dab, lipidated Lys, D-Glu, C-terminal amide; (2)..(2) Xaa at position 2 is Aib; (6)..(6) Xaa at position 6 is alpha-methyl-Phe(2F); (10)..(10) Xaa at position 10 is 4Pal; (13)..(13) Xaa at position 13 is alpha-methyl-Leu; (16)..(16) Xaa at position 16 is Dab; MOD_RES (17)..(17) Lys at position 17 is chemically modified by conjugation of the epsilon-amino group of the Lys side chain with (2-[2-(2-amino-ethoxy)-ethoxy]-acetyl)2-(gamma-Glu)-CO-) [Peptide 233] | 9.25
